Measurements from patent US20150299265A1 (Molecular Partners, published 2015).
Positions count from the first letter of the chain named.

B1: DARPin #68 (designed binder)
chain: MRGSHHHHHHGSDLGAKLLSDLGVKLLWAAARGQDDEVRILLAAGADVNAKDFQGITPLHIAAQSGHLEIVEVLLKAGADVNAKDVTGDTPLHLAAQHGHLVIVEVLLKAGADVNAQDERGWTPADLAADWGHEDIAEVLQKAAGSPTPTPTTPTPTPTTPTPTPTGSDLGKKLLEAARAGQDDEVRILMANGADVNAKDEYGLTPLYLATAHGHLEIVEVLLKNGADVNAVDAIGFTPLHLAAFIGHLEIAEVLLKHGADVNAQDKFGKTAFDISIGNGNEDLAEILQKAA
B2: DARPin #66 (designed binder)
chain: MRGSHHHHHHGSDLGAKLLSDLGVKLLWAAARGQDDEVRILLAAGADVNAKDFQGITPLHIAAQSGHLEIVEVLLKAGADVNAKDVTGDTPLHLAAQHGHLVIVEVLLKAGADVNAQDERGWTPADLAADWGHEDIAEVLQKAAGSDLGKKLLEAARAGQDDEVRILMANGADVNAKDEYGLTPLYLATAHGHLEIVEVLLKNGADVNAVDAIGFTPLHLAAFIGHLEIAEVLLKHGADVNAQDKFGKTAFDISIGNGNEDLAEILQKAA
B3: DARPin #47 (designed binder)
chain: MRGSHHHHHHGSDLGDKLLQSDLGIKLLFAAAKSQDDEVRILLAAGADVNAKDFQSVTPLHIAAQSGHLEIVEVLLKAGADVNAKDVTGDTPLHLAAQHGHLEIVEVLLKAGADVNAQDERGWTPADLAADWGHEDIAEVLQKLGGGGSGGGGSRSDLGIKLLVAAAQGQDDEVRILLAAGADVNAKDQQGATPLHLAAWKGHLEIVEVLLKAGADVNAKDLSGDTPLHIAAWFGHLEIVEVLLKAGADVNAQDTEGYTPADLAALYGHEDIAEVLQKLN
B4: DARPin #35 (designed binder)
chain: MRGSHHHHHHGSDLGIKLLFAAAKGQDDEVRILLAAGADVNAKDFEGYTPLHVAAYDGHLEIVEVLLKAGADVNAKDSQGRTPLHEAAYSGHLEIVEVLLKAGADVNAQDDAGETPADLAAAWGHEDIAEVLQKLGGGGSGGGGSRSDLGIKLLQAANLGQDDEVRILLATGADVNAKDSIGQTPLHWAARRGHLEIVEVLLKAGADVNAKDEYGVTPLHLAASLGHLEIVEVLLKAGADVNAQDESGETPADLAALHGHEDIAEVLQKLN
B5: DARPin #63 (designed binder)
chain: MRGSHHHHHHGSDLGAKLLSDLGVKLLWAAARGQDDEVRILLAAGADVNAKDFQGITPLHIAAQSGHLEIVEVLLKAGADVNAKDVTGDTPLHLAAQHGHLVIVEVLLKAGADVNAQDERGWTPADLAADWGHEDIAEVLQKLGGGGSGGGGSRSDLGKKLLEAARAGQDDEVRILMANGADVNAKDEYGLTPLYLATAHGHLEIVEVLLKNGADVNAVDAIGFTPLHLAAFIGHLEIAEVLLKHGADVNAQDKFGKTAFDISIGNGNEDLAEILQKAAGGGSGGGSC
modifications: PEGylated at its C-terminal Cys residue
B6: DARPin #64 (designed binder)
chain: MRGSHHHHHHGSDLGKKLLEAARAGQDDEVRILMANGADVNAKDYFSHTPLHLAARNGHLKIVEVLLKAGADVNAKDFAGKTPLHLAANDGHLEIVEVLLKHGADVNAQDIFGKTPADIAADAGHEDIAEVLQKLGGGGSGGGGSGGGGSGGGGSRSDLGAKLLSDLGVKLLWAAARGQDDEVRILLAAGADVNAKDFQGITPLHIAAQSGHLEIVEVLLKAGADVNAKDVTGDTPLHLAAQHGHLVIVEVLLKAGADVNAQDERGWTPADLAADWGHEDIAEVLQKLGGGGSGGGGSRSDLGKKLLEAARAGQDDEVRILMANGADVNAKDEYGLTPLYLATAHGHLEIVEVLLKNGADVNAVDAIGFTPLHLAAFIGHLEIAEVLLKHGADVNAQDKFGKTAFDISIGNGNEDLAEILQKLN
B7: DARPin #27 (designed binder)
chain: MRGSHHHHHHGSDLGVKLLWAAARGQDDEVRILLAAGADVNAKDFQGITPLHIAATNGHLEIVEVLLKAGADVNAKDITGETPLHHAADSGHLEIVEVLLKAGADVNAQDKAGVTPADLAAAWGHEDIAEVLQKLGGGGSGGGGSRSDLGIKLLQAANLGQDDEVRILLATGADVNAKDSIGQTPLHWAARRGHLEIVEVLLKAGADVNAKDEYGVTPLHLAASLGHLEIVEVLLKAGADVNAQDESGETPADLAALHGHEDIAEVLQKLN
B8: DARPin #45 (designed binder)
chain: MRGSHHHHHHGSDLGKKLLEAARAGQDDEVRILMANGADVNAKDFYGITPLHLAAAYGHLEIVEVLLKHGADVNAHDWNGWTPLHLAAKYGHLEIVEVLLKHGADVNAIDNAGKTPLHLAAAHGHLEIVEVLLKYGADVNAQDKFGKTAFDISIDNGNEDLAEILQKLGGGGSGGGGSRSDLGKKLLEAARAGQDDEVRILMANGADVNAKDEYGLTPLYLATAHGHLEIVEVLLKNGADVNAVDAIGFTPLHLAAFIGHLEIAEVLLKHGADVNAQDKFGKTAFDISIGNGNEDLAEILQKLN
B9: DARPin #22 (designed binder)
chain: MRGSHHHHHHGSDLGDKLLQSDLGIKLLFAAAKSQDDEVRILLAAGADVNAKDFQSVTPLHIAAQSGHLEIVEVLLKAGADVNAKDVTGDTPLHLAAQHGHLEIVEVLLKAGADVNAQDERGWTPADLAADWGHEDIAEVLQKLGGGGSGGGGSRSDLGIKLLQAANLGQDDEVRILLATGADVNAKDSIGQTPLHWAARRGHLEIVEVLLKAGADVNAKDEYGVTPLHLAASLGHLEIVEVLLKAGADVNAQDESGETPADLAALHGHEDIAEVLQKLN
B10: DARPin #46 (designed binder)
chain: MRGSHHHHHHGSDLGKKLLEAARAGQDDEVRILMANGADVNAKDFYGITPLHLAAAYGHLEIVEVLLKHGADVNAHDWNGWTPLHLAAKYGHLEIVEVLLKHGADVNAIDNAGKTPLHLAAAHGHLEIVEVLLKYGADVNAQDKFGKTAFDISIDNGNEDLAEILQKLGGGGSGGGGSRSDLGKKLLEAARAGQDDEVRILMANGADVNATDIHGHTPLHLAAAMGHLEIVEVLLKNGADVNANDWRGFTPLHLAALNGHLEIVEVLLKNGADVNATDTAGNTPLHLAAWFGHLEIVEVLLKNGADVNAQDKFGKTAFDISIDNGNEDLAEILQKLN
B11: DARPin #67 (designed binder)
chain: MRGSHHHHHHGSDLGAKLLSDLGVKLLWAAARGQDDEVRILLAAGADVNAKDFQGITPLHIAAQSGHLEIVEVLLKAGADVNAKDVTGDTPLHLAAQHGHLVIVEVLLKAGADVNAQDERGWTPADLAADWGHEDIAEVLQKAAGGGGSDLGKKLLEAARAGQDDEVRILMANGADVNAKDEYGLTPLYLATAHGHLEIVEVLLKNGADVNAVDAIGFTPLHLAAFIGHLEIAEVLLKHGADVNAQDKFGKTAFDISIGNGNEDLAEILQKAA
B12: DARPin #65 (designed binder)
chain: MRGSHHHHHHGSDLGAKLLSDLGVKLLWAAARGQDDEVRILLAAGADVNAKDFQGITPLHIAAQSGHLEIVEVLLKAGADVNAKDVTGDTPLHLAAQHGHLVIVEVLLKAGADVNAQDERGWTPADLAADWGHEDIAEVLQKLGGGGSGGGGSRSDLGKKLLEAARAGQDDEVRILMANGADVNAKDEYGLTPLYLATAHGHLEIVEVLLKNGADVNAVDAIGFTPLHLAAFIGHLEIAEVLLKHGADVNAQDKFGKTAFDISIGNGNEDLAEILQKLNKLGGGGSGGGGSGGGGSGGGGSRSDLGKKLLEAARAGQDDEVRILMANGADVNAKDYFSHTPLHLAARNGHLKIVEVLLKAGADVNAKDFAGKTPLHLAANDGHLEIVEVLLKHGADVNAQDIFGKTPADIAADAGHEDIAEVLQKLN
B13: DARPin #60 (designed binder)
chain: MRGSHHHHHHGSDLGVKLLWAAARGQDDEVRELLKAGADVNAKDFQGITPLHIAAQSGHLEIVEVLLKAGADVNAKDVTGDTPLHLAAQHGHLEIVEVLLKAGADVNAQDERGWTPADLAADWGHEDIAEVLQKLN
notes: monovalent
B14: DARPin #4 (designed binder)
chain: B13 chain with W114K
notes: The list of constructs skips DARPin #4
B15: DARPin #1 (designed binder)
chain: B13 chain with E32I, K35A, E94V
notes: monovalent
B16: DARPin #2 (designed binder)
chain: B13 chain with Q56T, V78I, D81E, L86H, Q89D, H90S, E111K, R112A, W114V, D122A
notes: monovalent
B17: DARPin #6 (designed binder)
chain: B13 chain with K17N, A23T, E32I, K35A, Q46E, I48V, I53L, S57W
notes: monovalent
B18: DARPin #3 (designed binder)
chain: B13 chain with V16I, W20F, R24K, G25S, E32I, K35A, G47S, I48V
notes: monovalent

These binders were tested against Human HER2 expressed on tumour cells (human, UniProt P04626 23-1255) (assay: cell-based or functional assay).
In the case of B1, the “% activity vs. DARPin # 41, BT474 cell proliferation” value is reported as 100% and the “IC50 [nM], inhibition of BT474 cell proliferation (BrdU)” value (from here on “IC50 [nM], inhibition”) is reported as 5.35 nM.
In the case of B2, the “% activity vs. DARPin # 41, BT474 cell proliferation” value is reported as 100% and the “IC50 [nM], inhibition” value is reported as 4.06 nM.
For B3, the “% activity vs. DARPin # 41, BT474 cell proliferation” value was 6.8%.
B4 was tested, and the “% activity vs. DARPin # 41, BT474 cell proliferation” value was 63% and the “IC50 [nM], inhibition” value was 4.63 nM.
B5 was tested, and the “% activity vs. DARPin # 41, BT474 cell proliferation” value was 100% and the “IC50 [nM], inhibition” value was 1.77 nM.
B6 was tested, and the “% activity vs. DARPin # 41, BT474 cell proliferation” value was 100% and the “IC50 [nM], inhibition” value was 2.31 nM.
For B7, the “% activity vs. DARPin # 41, BT474 cell proliferation” value was 37.8% and the “IC50 [nM], inhibition” value was 4.57 nM.
In the case of B8, the “% activity vs. DARPin # 41, BT474 cell proliferation” value is reported as 100% and the “IC50 [nM], inhibition” value is reported as 1.55 nM.
With B9 the “% activity vs. DARPin # 41, BT474 cell proliferation” value was 60.1% and the “IC50 [nM], inhibition” value was 4.03 nM.
B10 was tested, and the “% activity vs. DARPin # 41, BT474 cell proliferation” value was 100% and the “IC50 [nM], inhibition” value was 3.34 nM.
B11 was tested, and the “% activity vs. DARPin # 41, BT474 cell proliferation” value was 100% and the “IC50 [nM], inhibition” value was 4.87 nM.
With B12 the “% activity vs. DARPin # 41, BT474 cell proliferation” value was 100% and the “IC50 [nM], inhibition” value was 4.07 nM.

The binders below were run against T1, Recombinant human HER2 ectodomain (human, UniProt P04626 23-652, biotinylated on primary amines (for SPR and crude extract ELISA)) (assay: SPR (ProteOn); biotinylated human HER2 on neutravidin chip, monovalent DARPin injected).
T1 construct: extracellular domain; also called ErbB2; ectodomain of human HER2; not shown: Flag tag
Experimental: Protein binding kinetics of interesting purified HER2-binding DARPins were assayed by Surface Plasmon Resonance (SPR) analysis with a ProteOn array system (BioRad) using a setup, where biotinylated human HER2 was immobilized via neutravidin and the interaction was measured by adding free monovalent DARPin. The determination of Kd values was performed according to standard procedures.
SPR was measured using a ProteOn instrument (BioRad) and measurement was performed according standard procedures known to the person skilled in the art. The running buffer was PBS, pH 7.4, containing 0.005% Tween 20®. Neutravidin was covalently immobilized on a GLC chip (BioRad) to a level of about 8000 resonance units (RU). Immobilization of HER2 on the neutravidin coated chip was then performed. […] The signals (i.e. resonance unit (RU) values) of an uncoated reference cell and a reference injection (i.e. injection of running buffer only) were subtracted from the RU traces obtained after injection of […] (double-referencing). From the SRP traces obtained from the on-rate and off-rate measurements the on- and off-rate of the corresponding DARPin HER2 interaction can be determined.
Dissociation constants (Kd) were calculated from the estimated on- and off-rates using standard procedures known to the person skilled in the art.
B13 gave a Kd of 0.0117 nM.
Binder B14 has a Kd of 0.186 nM.
For B15, the Kd was 0.0781 nM.
Work on B16 yielded a Kd of 0.875 nM.
Binder B17 has a Kd of 0.0292 nM.
With B18 the Kd was 0.0131 nM.
